B1: TPR t1 (parent)
chain: GACCAAUCUGCCCUCAGAGCUCGAGAACAUCUUCGGAUGCAGAGGAGGCAGGCUUCGGUGGCGCGAUAGCGCCAACGUCCUCAACCUCCAAUGCAUCCCACCACAUGAUGAUGCCUGAAGAGCCUUGGUUUUUUG

Variants of: B1
Assay: polymerase ribozyme fitness, log enrichment relative to wild type (log ratio); higher = more active; in vitro selection for triplet polymerase activity
Method in brief: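 Fitness compares each genotype's enrichment to that of the wild type on a logarithmic scale, averaging replicates with inverse-variance weights. The logarithm is base 2. Enrichment came from Illumina sequencing of input and output libraries after one triplicate round of in vitro selection, which included frozen incubation at −7 °C, of PCR-built, transcribed mutant libraries of each subunit of a heterodimeric triplet polymerase ribozyme. Only genotypes with ≥10 input reads and ≥1 read per output were kept.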
For GACCAAUCUGCCCUCAGAGUUCGAGAACAUCUUCGGAUGCAGAGGACGCAGGCUUCGGUGGCGCGAUAGCGCCAUCGUCCUCAACCUCCAUUGCAUCCCACCACAUGAUGAUGCCUGAAGAGCCUUGGUUUUUUG [C20U G47C A75U A91U], the “polymerase ribozyme fitness (log ratio)” value was -4.77. With GACCAAUCUGCCCUCAGAGUUCGAGAACAUCUUCGGAUGCAGAGGAGGCAGGCUUCGGUGGCGCGAUAGCGCCAACGUCCUCAACCUCCAAUGCAUCUCACCACAUGAUGAUGCCUGAAGAGCCUUGGUUUUUUG [C20U C98U] the “polymerase ribozyme fitness (log ratio)” value was -1.43. With GACCAAUCUGCCCUCAGAGUUCGAGAACAUCUUCGGAUGCAGAGAAGGCAGGCUUCGGUGGCGCGAUAGCGCCAACGUCCUCAACCUCCAAUGCAUCCCACCACAUGAUGAUGCCUUAAGAGCCUUCGUGUUUUG [C20U G45A G117U G127C U130G] the “polymerase ribozyme fitness (log ratio)” value was -4.33. For GACCAAUCUGCCCUCAGAGUUCGACAACAUCUUCGGAUGCAGAGGAGGCAGGCUUCGGUGGCGAGAUAGUGCCAACGUCCUCAACCUCCAAUGCAUCGCACCACAUGAUGUUGCCUGAAGAGCCUUGGUUUUUUG [C20U G25C C64A C70U C98G A111U], the “polymerase ribozyme fitness (log ratio)” value was -6.27. With GACCAAUCUGCCCUCAGAGUUCGAGAACAUCUUCGGAUGCAAAGGAGGCAGGCUUCGGUGGCGCGAUAGCUCCAACGUCUUAAACCUCCAAUGCAUCCCACCACAUGAUGACGCCUGAAGAGCCUUGGUUUUUUG [C20U G42A G71U C80U C82A U112C] the “polymerase ribozyme fitness (log ratio)” value was -2.53. For GACCAAUCUGCCCUCAGAGUUCGAGAACAUCUUCGGAUGCAGAGGAGGCAGGCUUCGGUGGCGCGAUAGCGCCAAUGUCCUCAACCUCCAAUCCAUCCCACCACAUGAUGAUGCCUGAAGAGCCUUGGUUUUUUG [C20U C76U G93C], the “polymerase ribozyme fitness (log ratio)” value was -3.66. With GACCAAUCUGCCCUCAGAGUUCGAGAACAUCUUCGGAUGCAGAGGAGUCAGGCUUCUGUAGCGCGAUAGCGCCAACGUCCUCAACCUCCAAUGCAUCCCACCACAUGAUGAUGCCUGAAGAGCCUUGGUUUUUUG [C20U G48U G57U G60A] the “polymerase ribozyme fitness (log ratio)” value was -2.57. For GACCAAUCUGCCCUCAGAGUUCGAGAACAUCUUCGGAUGCAGAGGAGGCAGCCUUCGGUGGCGCGAUAGCGCCAACGUCCUCAACCUCCAAUGCAUCCCACCACAUGAUGAUGACUGAAGAGUCUUGGUUUUUUG [C20U G52C C114A C123U], the “polymerase ribozyme fitness (log ratio)” value was -4.27. In the case of GACCAAUCUGCCCUCAGAGUUCGAGAACAUCUUCGGAUGCAGAGGAGGCAGUCUUCGGUGGCGCGAUAGCGUCAACGUCCUCAACCUCCAAUGCAUCCCACCACAUGAUGAUGCCUGAAGAGCCUUGGUUUUUUG [C20U G52U C72U], the “polymerase ribozyme fitness (log ratio)” value is reported as -3.02. In the case of GACCAAUCUGCCCUCAGAGUUCGAGAACAUCUUCGGAUGCAUAGGAGGCAGGCUUAGGUGGCGCGAUAGCGCCAACGUCCUCAACCUCCAAUGCAUCCCACCACAUGAUGAUGCGUGAAGAGCCUUGGUUUUUUG [C20U G42U C56A C115G], the “polymerase ribozyme fitness (log ratio)” value is reported as -3.91. With GACCAAUCUGCCCUCAGAGUUCGAGAACAUCUUCGGAUGCAUAGGAGGCAGGCUGCGGUGGCGCGAUACCGCCAACGUCCUCAACCCCCAAUGCAUCCCACCACAUGAUGAUGCCUGAAGAGCCUUGGUUUUUUG [C20U G42U U55G G69C U87C] the “polymerase ribozyme fitness (log ratio)” value was -4.35. With GACCAAUCUGCCCUCAGAGUUCGAGAACAUCUUCGGAUGCAGAGGAGGCAGACUUCGGUAGCGCGAUAGCGCCAACGUCCUCAACCUCCAAUGCAACCCACCACAUGAUGAUGCCUGAAGAGCCUUGGUUUUUUG [C20U G52A G60A U96A] the “polymerase ribozyme fitness (log ratio)” value was -3.48. For GACCAAUCUGCCCUCAGAGUUCGAGAACAUCUUCGGAUGCAGAGGAGGCAGGCUUCGGUGGCGCGAUAGCGCCAACGUCUUGAAGCUCCAAUGCAUCCCACCACAUGAUGAUGCCUGAAGAGCCUUGGUUUUUUG [C20U C80U C82G C85G], the “polymerase ribozyme fitness (log ratio)” value was -3.74. With GACCAAUCUGCCCUCAGAGUUCGAGAACAUCUUCGGAUGCAUAGGAGGCAGGCUUAGGUGGCGCGAUAGCGCCUACGUCCUCAACCUCCAAUGCAUCCCACCACAUGAUGAUGCGUGAAGAGCCUUGGUUUUUUG [C20U G42U C56A A74U C115G] the “polymerase ribozyme fitness (log ratio)” value was -4.76. With GACCAAUCUGCCCUCAGAGUUCGAGAACAUCUUCGGAUGCAGAGGAGGCAGGCUUCGGUGGCGCGAUAGCGCCAACGUCCUCAAUCUCCAAUGCAUCCCUCCACAUGAUGAUGCCUGAAGAGCCUUGGUUUUUUG [C20U C85U A100U] the “polymerase ribozyme fitness (log ratio)” value was -3.48. For GACCAAUCUGCCCUCAGAGUUCGAGAACAUCUUCGGAUGCAGAGAAGGCAGGGUUCGGUGGCGCGAUAGCGCCAACGUCCUCAACCUCCAAUGCAUCCCACCACAUGAUGAUGCCUGAAGAGCCUUGGUUUUUUG [C20U G45A C53G], the “polymerase ribozyme fitness (log ratio)” value was -1.22. For GACCAAUCUGCCCUCAGAGUUCGAGAACAUCUUCGGAUGCAGAGUAGGCAGGCUUCGGUGGCGCGAUAGCGCCAACGUCCUCAACCUCCAAUGCAUCCCUCCACAUGAUGAUGCCUGAAGAGCCUUGGUUUUUUG [C20U G45U A100U], the “polymerase ribozyme fitness (log ratio)” value was -3.67. For GACCAAUCUGCCCUCAGAGUUCGAGAACAUCUUCGGAUGCAGAGGAGGCAGGCUUCGGUGGCGCGAUAGCGCUAACGUCCUCAACCUCCAAUGCCUCCCACCACAUGAUGAUGCCUGAAGAGCCUUGGAUUUUUG [C20U C73U A95C U129A], the “polymerase ribozyme fitness (log ratio)” value was -4.3. In the case of GACCAAUCUGCCCUCAGAGUUCGAGAACAUCUUCGGAUGCAGAGGAGGCAGGCUUCGGUGGCGCGAUAGCGCCAACGUCCUCAACCUCUAAUGCUUCCCACCACAUGAUGAUGCUUGAAGAGCCUUGGUUUUUUG [C20U C89U A95U C115U], the “polymerase ribozyme fitness (log ratio)” value is reported as -3.32. For GACCAAUCUGCCCUCAGAGUUCGAGAACAUCUUCGGAUGCAGAGGAGGCAGGCUUCGGUGGCGCGAUAGCGCCAACGUCCUCAACCUCCAAUGCAUCCCAUCACAUGAUGAUGCCUGAAGAGCCUUGGUUUUUUG [C20U C101U], the “polymerase ribozyme fitness (log ratio)” value was -1.97. For GACCAAUCUGCCCUCAGAGUUCGAGAACAUCUUCGGAUGCAGAGGAGUCAGGCUUCGGUGGCGCGAUAGCGCCAACGUCCUCAACCUCCACUGGAUCCCACCACAUGAUGAUGCCUGAAGAGCCUUGGUUUUUUG [C20U G48U A91C C94G], the “polymerase ribozyme fitness (log ratio)” value was -4.07.

From the RNAGym collection of RNA variant scans (doi:10.1073/pnas.2313332121)
